Consider 1 substance from article PMC11067747.

The target of this test is recombinant phytoplasmal effector causing phyllody 1 (PHYL1). Briefly: cross-linking; recombinant IMP and PHYL1 mixed at 30 µM each in 1x PBS, 15 min at 20°C, then 1 mM bis(sulfosuccinimidyl)suberate (BS3) for 60 min; SDS-PAGE and Western blot with anti-IMP and anti-PHYL1. In general terms: A western blot detects proteins with antibodies after separation by electrophoresis.

On to “recombinant immunodominant membrane protein (IMP) without the transmembrane domain, amino acids 33-172, from Crotalaria witches' broom phytoplasma (domain or fragment)”, for which the stoichiometry N stood at 1.

One may read the stoichiometry N as a count of units in the complex or per binding partner.
